Laboratory results reported in the supplement of paper PMC12636428.

Tested on: Saccharomyces cerevisiae
Assay: transcriptional activation domain activity (GFP:mCherry ratio, weighted mean of sorted bins, harmonized to initial dataset scale) (arbitrary fluorescence ratio units); higher = stronger transcriptional activation
Settings: beta-estradiol 1 µM; induction time 4 h
Summary of the method: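 Barcoded tiles were sequenced after cells were sorted into 8 bins by GFP:mCherry ratio. Before sorting, cultures had been diluted 1:5 into SC with 1 uM beta-estradiol and held for 4 hours at 30 °C. The tiles were fused to an estradiol-inducible synthetic transcription factor and integrated at URA3 in yeast diploids carrying a GFP reporter. Activation activity is the read-weighted mean of bin median fluorescence, averaged over barcodes and linearly mapped onto the initial dataset scale, and tiles under 50 reads were left out.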

Sequence: MRYGHLYTWIIILKYSLVLHQVFSLYLCIIFLAIIVFLIFVYWLMLEIFLVLF
- transcriptional activation domain activity: 80500

Sequence: ARTSDYSIAQWRFLTKLLLVHGRWNYNRICKYIVGTFWKEIVFYLTQALYQRY
- transcriptional activation domain activity: 45400

Sequence: ILGRLCRVRVLGFNDVLVRVDIILCLHLDTPAEAVFRVQRLVSLMGMLALQVF
- transcriptional activation domain activity: 41300

Sequence: MKVDSYTDYLTGIFIHCGLYDTNHDPNYPALYYRCVLLDSTWLVGLLTCFLWL
- transcriptional activation domain activity: 65100

Sequence: SGSGAEGASGTEHRRRTSTRGRGRGRGRGGRTGRGGRTANDAEGAEGAEADAS
- transcriptional activation domain activity: 27900

Sequence: FLCIFFLSLFFYTFSISYLYVWCLPPPPRRQTCLPTLTFISLPFVSALFLSFG
- transcriptional activation domain activity: 59100

Sequence: ASLHCLRSSPSSSSPCAARERSSSRARTSSSMCPIAPTHKPRSSTGSPARGTP
- transcriptional activation domain activity: 19900

Sequence: DADMIVRLALKARLRWLLPKLTWLRIYFDGLYSNGDVLRVLILPKLLHLLIMC
- transcriptional activation domain activity: 66000

Sequence: AAGETVHFSARAEVLTSKFGRTSKLSPRFIILTEKAVYILLAAARDGRVVVQL
- transcriptional activation domain activity: 37700

Sequence: SPSPSTTATPPASPSPPSRTKSTPRASSRSACAPSVTTPAGRPRSCARSGPRC
- transcriptional activation domain activity: 38000

Sequence: DLLDQMILGLLRYCEADILVPKLRLLGATDRARMELLDAYSCKVWLLLLMFVT
- transcriptional activation domain activity: 56500

Sequence: FIVVLLTMEVIIHYLYMVAIFHVKPDWSQFTAAQLSMMGFLNLKHIWLKLLIP
- transcriptional activation domain activity: 39000

Sequence: RHLGSLAYLGNTAVGEFGWGYKMIGGLYAQYLWRSVYWSKQVSLRTRINLSID
- transcriptional activation domain activity: 54500

Sequence: MRFSSLLFLFCLFHFPLFFFFFSSFFNFCLPILFLPNLFSPFLFPFSPHLFFF
- transcriptional activation domain activity: 51900

Sequence: MRIIIFMSLLLLKIIMILLLLLLRIKFNWFSFFSILKMLLSMKIMMLFLFLLL
- transcriptional activation domain activity: 35900

Sequence: MGASLVVFLLFFHLLFKNGLDLLIFPFSFFYSCTIFLSFLSFLYFSFCTHVFF
- transcriptional activation domain activity: 59800

Sequence: YIFMISLSSYSLSLINTLVSFGLLLLYTPSYRLWGWNPPFRAPKIIIFLFFLS
- transcriptional activation domain activity: 48300

Sequence: CTYVRESIKQFNGTYSKALEVRQRSIQFLGQRTKLCWYWLMLRYHLSTLMLVD
- transcriptional activation domain activity: 39700

Sequence: SFLSLFWLLCLGRFPIITKLFLGLYAVFYYVSRYKIGICFVVSIRWIWKSGNR
- transcriptional activation domain activity: 45600

Sequence: MHFLNFLFYCVYYLPLNHTIFFYFVWLTLTLLFFFFLVVYIHISSISSFFYIC
- transcriptional activation domain activity: 56600

Sequence: EDEEASAAHAAPPTTTTAGGRGKKKKGGASRKKENSAAPSKSAKASAPANIPP
- transcriptional activation domain activity: 20700

Sequence: SSEEEDEEDEEEEEEEEEEEAPPKKRAKTKGTVLYCYIFSPFFVPATVNPAID
- transcriptional activation domain activity: 56700

Sequence: TFARHTDQKWLEEVITEALNELAGLGIVRAHLIALRWCSERITITRVYCSRLL
- transcriptional activation domain activity: 43300

Sequence: DVVDHSGDLFIRCNEIFGRQCIRNYIPSDPIWLIPLLGLLHRRLMYKVRLIYP
- transcriptional activation domain activity: 71700

Sequence: IMMFPMFIALSILYAMVYLGVLFSFFSVLFFFSVVYFLEPGGLCILDVFFYYY
- transcriptional activation domain activity: 68000

Sequence: KCSKVEPWVINVAAVFPSVFLLGFVENFFWFRRMMLGKGCLRFGTVCWALLFI
- transcriptional activation domain activity: 65800

Sequence: SDESTKADSGNKDNPGGAEKSGDEKEKEKDGGTSRMRSRKGKFRKNKAEDIEK
- transcriptional activation domain activity: 30400

Sequence: SNDGEDENGDGVSNEKSGRKKGKGRRKRGKDQAQVKGDQEPQDGEAGGEGGAE
- transcriptional activation domain activity: 21600

Sequence: PLHLLGDKAEVEIGGVWSAGMAYGSRELVERHLFSLYFMLPLVAVCIGFLYHN
- transcriptional activation domain activity: 41200

Sequence: MMMGTIVKSFFLFTFTFSIFFFYFFPRVLFTPFFFTYWTSAFFLLLFLFFFLF
- transcriptional activation domain activity: 64900

Sequence: IIRLCSYFQRYVDLPIHNIYDRIAAHASTEILFYANALKEDFFRFGLVYRLYA
- transcriptional activation domain activity: 59200

Sequence: LIWSCKLIWAAYLDMYRYHIYVLVSFEVVALLTWILTLLYGVPNLINLVYHAY
- transcriptional activation domain activity: 56300

Sequence: LKDEVMKIKPVQKQTRAGQRTRFKAVVIVGDSNGHVGLGIKTAKEVATAIRAA
- transcriptional activation domain activity: 81600

Sequence: ICIIPFVNGFLCEPILPLVFFCSSLTLSESWFIFCIGLVVGLWLYTLVAGVCF
- transcriptional activation domain activity: 37300

Sequence: QSGFNIHLKDAGAGAHMELLTLDQILMFFQGLNNLNLLYFWGVGFDRLAILAF
- transcriptional activation domain activity: 59200

Sequence: QRIIIGSKLILLTRSLLICLLWSLKMAVLDLLAKLMLNMPFERKLIYTLWAIL
- transcriptional activation domain activity: 41600

Sequence: ELNEYLDLFKNNFLPHFPIIHPSLLDLDLDSLQRYTNEDGYDDAENAQLFDRL
- transcriptional activation domain activity: 117000

Sequence: VHFIYHHSFRMRFYYFFLLSFLQAGRSIGFLIHGFWCFLLLIAFFVYPFLRFV
- transcriptional activation domain activity: 64600

Sequence: KFFVRHQHKLYYVILSLGRFNLHNLSFTYLFTAPRVRYRWLEIFGICVFFTWY
- transcriptional activation domain activity: 55900

Sequence: FFRRLLLEIGWAHPLLVLCSATLLEPAHSRDHYVSKVFSHLSPEHAHVVGEIA
- transcriptional activation domain activity: 47500

Sequence: MQASFIFLSFTSGVIHTYILYLDLVAYFLLSLGGFVLIIGFWRWGFFFSFFPF
- transcriptional activation domain activity: 55400

Sequence: HSSIEWLMGWPAGLKLNKELALFLGDLFLWVIEYWSSCISALQPLLPHMVWFI
- transcriptional activation domain activity: 39900

Sequence: ALTLEYFYFECSTPVPDGLLTDPLPPLPKLLVIHFFFYLSQHTIYLLLHILSQ
- transcriptional activation domain activity: 60200

Sequence: SISQFCWIWYTRPRPLQDICYYDSASRGPWGCFLLLLRLRFIRFACIGAIITL
- transcriptional activation domain activity: 78600

Sequence: LPGGKYLFMVMKNNGGGSEKFALVLFDVEAQMTLLKASRILLLRARYITPKTT
- transcriptional activation domain activity: 51400

Sequence: MHTLVLDFDEDVVEQALRLFNLNSRALTTFLSLLVMEYGIALGPMRHRWITSP
- transcriptional activation domain activity: 18100

Sequence: DDETADGERQSKREKADDDDDGEEMEIDEEEESAANRNTAVVPPAVQKPSARL
- transcriptional activation domain activity: 19200

Sequence: LAILMDGLNRILLTHKDDIGIVARVMLAYMTAATRFKRLFISGGGYMLFMPAV
- transcriptional activation domain activity: 59800

Sequence: SLYRVWDCKSTMLAFSKYIPQIHSPSALEYALVSMGSDFVLFLLRRIFEILKK
- transcriptional activation domain activity: 55500

Sequence: SEIALSSSTHSLRLYGKSVGGGKVAGMVRMAYSAKSGVTVKVSVRSEEGGLAG
- transcriptional activation domain activity: 37500

Sequence: CFFLFYIIHLPLLFIHITKSMYVLIVSRFVSSFPVSVGWAVGRAHGFGPLFAQ
- transcriptional activation domain activity: 51900

Sequence: MITQILYLDLLHPLHCHFFFFFSFFSSLIVVSVIITRLYFFFFSHLVIFCPFL
- transcriptional activation domain activity: 54600

Sequence: MRTGSNFVLFAFFCLVLMFTLTFILVFVCCASVGGILYPFRFLLSFVWILVSL
- transcriptional activation domain activity: 28200

Sequence: FFCFVFLAHYTWLIKHGFQTHLLELGSFFSDLSLIICFFLLIMHLFCVTPFFR
- transcriptional activation domain activity: 68400

Sequence: NRKTIGKQDPYCAARLGKEAKKTDTDRRGGQTPRWDQELRYTVHDSPDYYQLK
- transcriptional activation domain activity: 33300

Sequence: QDEKHAEREGDTSSADGKEKSQDGDGGEKQKEGEGKPEKRNGVEAGAKNPAVK
- transcriptional activation domain activity: 10600

Sequence: LHLMLQKLCFAATLRIATLPDKHPLHPFVKRVYRYLFLKSHRAPRHNLFEAFQ
- transcriptional activation domain activity: 55000

Sequence: EGEAPKAEEEEEKDAAPDGEGEQPAEADPEEEERQRRAAIAARMARLGGARLG
- transcriptional activation domain activity: 14200

Sequence: MAPSASAGGSGAAKPKKTRAKHACRECNSRRVKCNVTERQPCTNCAASGATCE
- transcriptional activation domain activity: 11700

Sequence: TIIGLTSAVLLPVVVFIPYIPCWLFLYLVNLLFPLIFICFTGKVIQLTFLYYS
- transcriptional activation domain activity: 50100

Sequence: HFAFESLAQTKHLERICMLSIRFVYVYAPHGEPIQLVVGFLICLLSNSPVSNG
- transcriptional activation domain activity: 55200

Sequence: SSSSEPIVLPVPVPVKRGRGRPKGAKNKPKLCEEKKQEEEEERERERERERGT
- transcriptional activation domain activity: 12200

Sequence: GKGIGGFNCVAASLGVVQVGMQWSCFAVILLLFLIYFPSASSLGSPATTPTGT
- transcriptional activation domain activity: 36400

Sequence: TFVRLVMLIAMKVFKFDFLVLSYLATIVYSVCFLTYLCDWHSIFPFAWYHHIY
- transcriptional activation domain activity: 47000

Sequence: LLRFSLLLMFPWLVCLVSCFPCFPLLLPTSCATRFRFLHPFLTVSLLSLLFLC
- transcriptional activation domain activity: 56800

Sequence: AAAAAAAASNSYAIPENELLDEDTMNFISSLKNDLSNISNSLPFEYPHEIAEA
- transcriptional activation domain activity: 123000

Sequence: PAHSLLELIQLMKRKAFVCWYLFTIVIVLLLLLWIFLSVNYFHCIKPINFNTD
- transcriptional activation domain activity: 34800

Sequence: IRLLFVWIVCTRIVLASRSACGRCYRSYLAMRSRSGWRWVSRRTAAVLVLRWC
- transcriptional activation domain activity: 61500

Sequence: DLLLEGYDTNRLLVVIPFTCKVLEQAAKSMVFKPPNPWLMAIVKLLAELYLYA
- transcriptional activation domain activity: 73900

Sequence: YMYSAFMRFFILGWPSYLVVVASIAVVLLLHILYFLVQLQLKNIFLLLLHCFA
- transcriptional activation domain activity: 60400

Sequence: GNGGAGAGAGGANANANANANAGNGAAAAGGNNAATAATGGGKAAKAAAAAAA
- transcriptional activation domain activity: 22600

Sequence: MCVVFFPVLLLWRLLFRSFSFLPVCIVSPVTRFFFLSFFPSQSIVSNSFILPA
- transcriptional activation domain activity: 29800

Sequence: GVEWWNVTSPEDSTYDPASLPLDVWDPLLPHDTGFSEIDITQCFFDPFFMPFL
- transcriptional activation domain activity: 160000

Sequence: SGTEDEDAAEDKSAAEDESGTEDESGTKDESGTEDEKLVRDIEEVVIVVEVVM
- transcriptional activation domain activity: 32900

Sequence: REGEERERDGRRTSTGRRARGKGRRSRRKEGKRENRKERERKEGKEGPGQRRR
- transcriptional activation domain activity: 26700

Sequence: MGGVFWKWKRGVWMVRFFRVFLQIFLADIGLILLVFWHYIVCLCYFLFFLVGI
- transcriptional activation domain activity: 52500

Sequence: MTEDEGKPRRKRARLACTACNARRVKCNVTESRPCHNCIAGNVLCETVPSRRG
- transcriptional activation domain activity: 36100

Sequence: AFLCWVAPNNQVANFLGSGFGGMGFLNLSLDWSNISTNGSLFLTPWWTQVVMF
- transcriptional activation domain activity: 52500

Sequence: MLLCLSFLCCYYDISNVSRCYCLFCCIILLFLSCSLLFWLAFSQFLRFFLISF
- transcriptional activation domain activity: 62000

Sequence: MPALQCALLLHQVNMAFLQWNCMLYTIYHFRIIHIIILLLHMCTRTIICLLNG
- transcriptional activation domain activity: 37700

Sequence: IGMGLDAMLILSRLSRFIRIACVVFWWPGFAVFIAACKSLCLLLHFRDVRELR
- transcriptional activation domain activity: 63000

Sequence: ELLESTEREGGRGLRPAKAEVREGGLDGVVGGLEDLRGGRVSGRKLVYRVGTE
- transcriptional activation domain activity: 35700

Sequence: MGASLRVQIWVCIRLELCCSWIWFLASFGILFFFFCFCPLRTSLHSFPLPLYI
- transcriptional activation domain activity: 47800
